Tests used:
TREM-1 [1] = biological target: T1, TREM-1 (Mus musculus, UniProt Q9JKE2); assay: Mouse myocardial infarction, leukocyte recruitment and mobilization (flow cytometry), plasma chemokines; type: in vivo
T1 construct: endogenous in cells; host or cells: living mice (C57BL, Balb/c, ApoE-/-), in vivo
T1 sequence (Q9JKE2 21-230): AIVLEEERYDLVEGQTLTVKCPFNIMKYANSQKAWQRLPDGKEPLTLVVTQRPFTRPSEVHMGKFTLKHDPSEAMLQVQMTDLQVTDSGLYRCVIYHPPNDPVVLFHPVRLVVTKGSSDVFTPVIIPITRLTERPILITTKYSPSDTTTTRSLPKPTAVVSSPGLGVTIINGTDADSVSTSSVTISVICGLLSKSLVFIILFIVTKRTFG
Method: All procedures were performed on mice male C57BL/C ranging in age from 6-8 weeks. Mice were anesthetized by an intraperitoneal injection of xylazine (60 mg/kg) and fixed in supine position. The trachea was intubated and ventilated (the tidal volume was 200 μl/25 g and the respiratory rate was 120 breaths/min). After a left thoracotomy, the left coronary artery was identified and ligated with an 8-0 prolene surgical suture at 1.0 mm distal from tip of the left auricle. LAD occlusion was confirmed by a change in myocardial color from red to white in the ischemia area (Left ventricle). The chest was closed and the skin was sutured with 6-0 silk. The animals returned to their cage where they are supervised until their complete recovery.
Mice were monitored after surgery for mortality. Mice were randomized to receive or not peptides (daily ip injection for 5 days, 5 mg/kg) and monitored for survival. […] A median sternotomy was performed followed by excision of the heart and dissection of ischemic and non-ischemic areas. ARN extraction and protein extraction were then performed for RT-PCR, WB, immunohistology, and ELISA analysis.
To prepare single-cell suspensions from infarct tissue, hearts were harvested; minced with fine scissors; placed into a cocktail of collagenase I, collagenase XI, DNase I, and hyaluronidase (Sigma-Aldrich); and shaken at 37° C. for 1 h. Cells were then triturated through and centrifuged (15 min, 500 g, 4° C.).
Spleens were removed, triturated in HBSS at 4° C. with the end of a 3-ml syringe, and filtered through 70-μm nylon filters (BD). The cell suspension was centrifuged at 300 g for 10 min at 4° C. Red blood cells were lysed (Red Blood Cells Lysis solution, Miltenyi), and the splenocytes were washed with HBSS and resuspended in HBSS supplemented with 0.2% (wt/vol) BSA. Peripheral blood was drawn via cardiac puncture with citrate solution as anticoagulant, and red blood cells were lysed. Finally, bone-marrow single-cell suspensions were obtained from femurs after flushing them with 1 mL HBSS, filtering through 70-μm nylon filters and centrifugation at 300 g for 10 min at 4° C. Total viable cell numbers were determined from aliquots using a hemacytometer with Trypan blue (BioRad).
Cell suspensions were incubated in a cocktail of mAbs against CD4^+ or CD8^+ T cells (CD4- or CD8-APC, CD3ε-PE, CD45-FITC), B cells (CD19-PE, CD45-FITC), granulocytes (CD45-FITC, Ly-6G-APC), monocytes subsets (CD115-PE, Ly-6C-APC, CD45-FITC), all antibodies from Miltenyi Biotech. Reported cell numbers were calculated as the product of total living cells (total viable leukocytes per ml) and percentage of cells within selected gate, and reported per mg of tissue (heart), per organ (femur and spleen), or per mL (blood). Data were acquired on a FC500 cytometer (Beckman Coulter).

TREM-1 [2] = assay: Monkey model of endotoxin (LPS) infusion: blood pressure monitoring; type: in vivo, cynomolgus monkey (Macaca fascicularis)
Method: Male cynomolgus monkeys (Macaca fascicularis) (2.8 to 3.5 kg, 24 months old, Le Tamarinier, La Route Royale, Tamarin, Mauritius) were used. Animals were fasted the day before LPS challenge but with full access to water. CIToxLAB France Ethical Committee (CEC) reviewed and approved all study plans (Nr CEC: 02221).
Vital signs and weight were recorded the day before LPS challenge. The next morning, baseline clinical laboratory samples were collected, and a baseline set of vital signs was recorded. The drug was administered into the cephalic or saphenous vein via a Teflon catheter. Contralateral vein was used for LPS administration.
Monkeys were randomized to receive LR12 or placebo (n=6 per group). An additional group of 4 was constituted to only receive vehicle (NaCl 0.9%) infusion and served as the control group.
At time point 0, a 15 mins intravenous infusion of LR12 or placebo solution was begun, at the rate of 12 mL/h (5 mg/kg, 10 mins, 2 mL), delivered by a calibrated syringe pump (Harvard Apparatus). A continuous infusion was then administered for further 8 hours at the rate of 2 mL/h (1 mg/kg/h, 8 hours, 16 mL). Just before treatment infusion, an intravenous bolus of LPS (10 μg/kg) was administered over the course of a 10 mins period into the contralateral catheter. Animals remained awake in an upright position in a restraint chairs and continued to fast from food for the whole study duration.
Pulse rate, and blood pressure were monitored every 15 mins for 1 hour, then every 30 mins for 7 hours.

Sequence: LQEEDAGEYGCM (listed as Homo sapiens) [TLT1-LR12]
- peripheral blood neutrophilia (TREM-1 [1]; 72 hours after MI): not observed
- B- and CD8+-lymphocyte infiltration of infarcted myocardium (TREM-1 [1]; mouse MI): reduced
- CD4+-cells recruitment to infarcted myocardium (TREM-1 [1]; mouse MI): increased
- PMN infiltration of infarcted myocardium (TREM-1 [1]; mouse MI): blocked
- arterial pressure / hypotension after LPS challenge (TREM-1 [2]; LPS 10 μg/kg): never went hypotensive
- Heart rate after LPS injection (TREM-1 [2]; LPS 10 μg/kg, 5 mg/kg then 1 mg/kg/h for 8 hours i.v.): no effects
- body temperature increase after LPS, difference between placebo (LR12scr) and LR12-treated animals (TREM-1 [2]; between H1 and H2): not significant
